The values below come from US20220010003A1.

Assay [1] concerns the target recombinant human periostin (human) (UniProt Q15063). Kind of assay: ELISA, human periostin coated, biotinylated collagen type I titrated, Avidin-HRP detection. On the technique in general: An ELISA detects its analyte on a solid surface through an enzyme-linked reagent.
The target is the same in assay [2]. Kind of assay: ELISA, human periostin coated, biotinylated tenascin C titrated, Avidin-HRP detection.

recombinant human periostin (human), sequence (Q15063 22-836 limits assumed): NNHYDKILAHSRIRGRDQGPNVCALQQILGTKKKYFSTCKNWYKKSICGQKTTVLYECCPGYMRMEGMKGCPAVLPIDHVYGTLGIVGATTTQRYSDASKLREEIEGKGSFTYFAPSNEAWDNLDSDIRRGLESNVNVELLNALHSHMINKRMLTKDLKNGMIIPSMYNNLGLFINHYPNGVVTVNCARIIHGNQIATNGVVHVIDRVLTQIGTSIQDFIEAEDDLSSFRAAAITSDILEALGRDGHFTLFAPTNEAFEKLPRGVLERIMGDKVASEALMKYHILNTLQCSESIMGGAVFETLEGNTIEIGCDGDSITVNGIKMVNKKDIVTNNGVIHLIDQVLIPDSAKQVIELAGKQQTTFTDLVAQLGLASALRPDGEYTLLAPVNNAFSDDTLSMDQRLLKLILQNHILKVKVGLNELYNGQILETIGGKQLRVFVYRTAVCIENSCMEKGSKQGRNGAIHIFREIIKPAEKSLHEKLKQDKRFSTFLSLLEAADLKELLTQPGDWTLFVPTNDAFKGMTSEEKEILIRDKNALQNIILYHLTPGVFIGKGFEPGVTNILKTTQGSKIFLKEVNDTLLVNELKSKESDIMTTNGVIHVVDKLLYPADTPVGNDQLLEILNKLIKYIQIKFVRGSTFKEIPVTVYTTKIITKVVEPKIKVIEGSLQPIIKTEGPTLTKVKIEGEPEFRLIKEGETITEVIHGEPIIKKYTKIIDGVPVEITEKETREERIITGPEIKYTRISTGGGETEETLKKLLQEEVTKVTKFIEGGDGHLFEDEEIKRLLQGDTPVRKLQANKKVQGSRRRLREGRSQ

Broadly, the EC80 is the concentration at which the effect reaches the 80% level. “human collagen type I (from UniProt P02452 162-1218; P08123 80-1119)”: in assay [1], the concentration for an effect of 80% (EC80) turned out to be 100 nM. As to “recombinant human tenascin C (from UniProt P24821 23-625)”, the 80% effect concentration (EC80) in assay [2] is 0.9 nM.
